ChEMBL document CHEMBL1129993, “Synthesis and biological characterization of 1,4,5,6-tetrahydropyrimidine and 2-amino-3,4,5,6-tetrahydropyridine derivatives as selective m1 agonists” (J Med Chem, 1997)

Tests used:
[1] = substrate: COC(=O)C1CN=CNC1; conditions: Mus musculus; A9L
[2] = substrate: C[N+](C)(C)CCOC(N)=O; conditions: Mus musculus; A9L

B1: Muscarinic acetylcholine receptor M2 (Mus musculus), Q9ERZ4 (protein)
chain: MNNSTNSSNNGLAITSPYKTFEVVFIVLVAGSLSLVTIIGNILVMVSIKVNRHLQTVNNYFLFSLACADLIIGVFSMNLYTLYTVIGYWPLGPVVCDLWLALDYVVSNASVMNLLIISFDRYFCVTKPLTYPVKRTTKMAGMMIAAAWVLSFILWAPAILFWQFIVGVRTVEDGECYIQFFSNAAVTFGTAIAAFYLPVIIMTVLYWHISRASKSRIKKEKKEPVANQDPVSPSLVQGRIVKPNNNNMPGGDGGLEHNKIQNGKAPRDGGTENCVQGEEKESSNDSTSVSAVASNMRDDEITQDENTVSTSLGHSKDDNSRQTCIKIVTKTQKGDACTPTSTTVELVGSSGQNGDEKQNIVARKIVKMTKQPAKKKPPPSREKKVTRTILAILLAFIITWAPYNVMVLINTFCAPCIPNTVWTIGYWLCYINSTINPACYALCNATFKKTFKHLLMCHYKNIGATR
Km [1]: 0.014 µM | Km [2]: 0.046 µM
